Data reported in article PMC12442389.
Values belong to the substance of their own block, whether it stands above or below them.

How the values were obtained:
[1] = target: His6-tagged PlyCYU endolysin (full-length) (Streptococcus suis (prophage λSa2%2C)); experiment: SEC-MALS; Superdex 200 Increase 5/150 GL; 20 mM sodium phosphate, pH 7.0, 150 mM NaCl; 10 µL injected at 10 mg/mL; 0.2 mL/min; self-association, oligomeric number from mass over subunit mass
[2] = target: His6-tagged PlyCYU endolysin (full-length) (Streptococcus suis (prophage λSa2%2C)); experiment: SEC; SEC-UV; Superdex 200 Increase 10/300 GL; 50 mM phosphate buffer, pH 7.5, 150 mM NaCl; 0.1-0.4 mg/mL protein; 0.5 mL/min; mass from a calibration curve of standard proteins; PlyCYU214 also with 500 mM NaCl; self-association
[3] = target: CW7_Lyz2 (amino acids 142 to 473, two cpl-7 motifs and the glucosaminidase domain of PlyCYU) (Streptococcus suis (prophage λSa2%2C)); experiment: SEC-MALS; Superdex 200 Increase 5/150 GL; 20 mM sodium phosphate, pH 7.0, 150 mM NaCl; 10 µL injected at 10 mg/mL; 0.2 mL/min; self-association, oligomeric number from mass over subunit mass
[4] = target: CW7_Lyz2 (amino acids 142 to 473, two cpl-7 motifs and the glucosaminidase domain of PlyCYU) (Streptococcus suis (prophage λSa2%2C)); experiment: SEC; SEC-UV; Superdex 200 Increase 10/300 GL; 50 mM phosphate buffer, pH 7.5, 150 mM NaCl; 0.1-0.4 mg/mL protein; 0.5 mL/min; mass from a calibration curve of standard proteins; PlyCYU214 also with 500 mM NaCl; self-association
[5] = target: cyuLyz2 (amino acids 266 to 473, glucosaminidase domain of PlyCYU) (Streptococcus suis (prophage λSa2%2C)); experiment: SEC-MALS; Superdex 200 Increase 5/150 GL; 20 mM sodium phosphate, pH 7.0, 150 mM NaCl; 10 µL injected at 10 mg/mL; 0.2 mL/min; self-association, oligomeric number from mass over subunit mass
[6] = target: cyuLyz2 (amino acids 266 to 473, glucosaminidase domain of PlyCYU) (Streptococcus suis (prophage λSa2%2C)); experiment: SEC; SEC-UV; Superdex 200 Increase 10/300 GL; 50 mM phosphate buffer, pH 7.5, 150 mM NaCl; 0.1-0.4 mg/mL protein; 0.5 mL/min; mass from a calibration curve of standard proteins; PlyCYU214 also with 500 mM NaCl; self-association

stoichiometry N [1]: 5.2
stoichiometry N [2]: 6.8
Substance: His6-tagged PlyCYU endolysin (full-length) (enzyme)

stoichiometry N [3]: 4.4
stoichiometry N [4]: 11.8
Substance: CW7_Lyz2 (amino acids 142 to 473, two cpl-7 motifs and the glucosaminidase domain of PlyCYU) (domain or fragment)

stoichiometry N [5]: 3.9
stoichiometry N [6]: 6.9
Substance: cyuLyz2 (amino acids 266 to 473, glucosaminidase domain of PlyCYU) (domain or fragment)
